The source of these data is patent publication US20080160035A1 (Regeneron, published 2008).

The target in test [1] is T1, dimeric hIL-4R-hFc (human, UniProt P24394 26-232).
T1 construct: also called hIL-4R-Fc; not shown: human Fc (hFc)
T1 sequence: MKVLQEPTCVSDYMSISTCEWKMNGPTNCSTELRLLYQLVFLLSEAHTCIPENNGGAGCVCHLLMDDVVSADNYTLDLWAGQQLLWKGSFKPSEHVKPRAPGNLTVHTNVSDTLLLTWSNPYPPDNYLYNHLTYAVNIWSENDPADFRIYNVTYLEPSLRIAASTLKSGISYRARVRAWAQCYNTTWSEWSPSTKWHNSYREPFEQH
Nature of the test: ELISA; antibody titrated against 25 pM hIL-4R-Fc, free receptor caught on hIL-4 plate. On the technique in general: In an ELISA, binding on a coated surface is turned into a signal by an enzyme label.

Test [2] has as its target T2, hIL-4R on cells (STAT6-transfected HEK293, TF1, TF1/A12) (human, UniProt P24394 26-825).
T2 sequence (looked up): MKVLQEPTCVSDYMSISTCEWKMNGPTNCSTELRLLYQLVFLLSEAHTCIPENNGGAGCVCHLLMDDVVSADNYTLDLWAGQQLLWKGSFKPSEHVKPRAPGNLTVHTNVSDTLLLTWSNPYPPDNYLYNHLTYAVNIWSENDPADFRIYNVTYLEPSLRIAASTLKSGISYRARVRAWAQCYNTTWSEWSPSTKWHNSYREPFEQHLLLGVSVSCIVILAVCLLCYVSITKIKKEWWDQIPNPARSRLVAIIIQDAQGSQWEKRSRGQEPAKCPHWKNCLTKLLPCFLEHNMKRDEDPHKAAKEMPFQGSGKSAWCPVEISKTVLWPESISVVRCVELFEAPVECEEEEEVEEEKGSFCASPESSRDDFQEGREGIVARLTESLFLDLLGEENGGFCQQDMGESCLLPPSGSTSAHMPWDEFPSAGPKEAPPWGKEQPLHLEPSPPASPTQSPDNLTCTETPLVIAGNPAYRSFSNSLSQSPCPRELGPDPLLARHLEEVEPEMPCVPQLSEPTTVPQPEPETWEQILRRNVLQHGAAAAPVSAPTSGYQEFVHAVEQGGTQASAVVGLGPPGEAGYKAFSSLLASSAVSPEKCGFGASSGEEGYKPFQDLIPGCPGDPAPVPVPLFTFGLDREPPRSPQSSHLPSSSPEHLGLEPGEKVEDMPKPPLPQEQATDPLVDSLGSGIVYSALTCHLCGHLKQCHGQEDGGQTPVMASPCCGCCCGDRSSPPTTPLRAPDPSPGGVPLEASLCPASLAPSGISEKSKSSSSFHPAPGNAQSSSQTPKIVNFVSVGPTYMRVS
Kind of test: cell-based or functional assay.

In test [3] the target is T1, dimeric hIL-4R-hFc. Kind of test: SPR (BIAcore 2000); antibody captured, dimeric hIL-4R-hFc injected. (In SPR one partner is held on a chip, and binding of the other changes the refractive index at the surface.)
Test [4] concerns the target T3, monomeric hIL-4R (R&D Systems) (human, UniProt P24394 26-231).
T3 construct: Bought (R&D Systems); also called hIL-4R monomer
T3 sequence: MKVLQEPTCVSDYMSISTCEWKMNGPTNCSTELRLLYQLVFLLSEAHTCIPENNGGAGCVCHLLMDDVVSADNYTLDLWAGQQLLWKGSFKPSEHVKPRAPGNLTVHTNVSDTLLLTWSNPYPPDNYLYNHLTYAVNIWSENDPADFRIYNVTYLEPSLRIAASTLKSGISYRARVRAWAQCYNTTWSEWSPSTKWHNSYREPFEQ
Kind of test: SPR (BIAcore 2000); antibody captured, monomeric hIL-4R injected.

The target of another test is T4, mouse IL-4R (mouse, UniProt P16382 26-233, limits assumed).
T4 sequence (looked up): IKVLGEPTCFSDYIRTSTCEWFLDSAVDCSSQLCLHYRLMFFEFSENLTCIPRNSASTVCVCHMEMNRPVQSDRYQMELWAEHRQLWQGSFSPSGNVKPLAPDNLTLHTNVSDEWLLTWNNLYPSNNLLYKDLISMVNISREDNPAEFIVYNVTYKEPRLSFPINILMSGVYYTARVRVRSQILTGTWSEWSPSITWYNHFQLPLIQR
Nature of the test: binding affinity test of Example 2 (method not restated).

In test [5] the target is T2, hIL-4R on cells (STAT6-transfected …). Kind of test: cell-based or functional assay. The source holds these as a separate data set.
In test [6] the target is T1, dimeric hIL-4R-hFc. Kind of test: SPR; reduction of hIL-4 (50 nM) binding to captured hIL-4R-hFc after antibody; competitor hIL-4. From the text: Purified hIL-4R-hFc molecules were captured by goat anti-human IgG polyclonal antibody immobilized on CM-5 to a density of 260 RU, to prepare a receptor-coated surface.
A further test has as its target T5, hIL-4R (human, UniProt P24394 26-232).
T5 construct: also called human IL-4 receptor; antigen
T5 sequence (looked up): T1 sequence
Nature of the test: screen of hybridoma conditioned media.

Numbering of substitutions follows the chain as printed.

B1: VAB 7B9-3 (antibody, V domains shown)
VH: QVQLVQSGAEVKKPGASVKVSCKDSAYTFNRYGISWVRQAPGQGLEWMGWISAYTGNTVYAQKLQGRVTMTTDNSTSTAYMELRSLRSDDTAVYYCARDKSIFGVVRGFDYWGQGTLVTVSS
VL: EIVMTQSPVTLSLSPGERATLPCRASQSVSSSLAWYQQKAGQSPRLLIYGASTRATGIPARFSGSGSGTEFTLTISNLQSEDFAVYYCQQYNNWPLTFGGGTKVEIK
notes: Apparently tested with mouse constant region (anti-mouse IgG capture/detection)
By IC50 is commonly meant the concentration that inhibits the measured activity by half. High values mean lower potency, low ones higher potency. Broadly, the Kd is a measure of binding affinity in units of concentration. The low end stands for higher affinity, the high end for lower affinity. In the test with dimeric hIL-4R-hFc [1], B1 registered an IC50 of 0.059 nM. Besides, in test [2], the “STAT6 Bioassay IC50 (HEK293 STAT6 luciferase, 10 pM hIL-4)” value is 3.4 nM and the “TF1/A12 Bioassay IC50 (proliferation, 20 pM hIL-4)” value worked out at 8.2 nM. Besides, in the test with dimeric hIL-4R-hFc [3], the Kd is 0.052 nM and the T1/2 dimeric was 6.1 h. In test [4], binding was put at a Kd of 1.01 nM and the T1/2 monomeric came out at 0.217 h. Besides, in the test with mouse IL-4R, the binding result is “no binding”. Moreover, the “STAT6 Bioassay IC50 (HEK293 STAT6 luciferase, 40 pM hIL-13)” value in test [5] is 1.1 nM. The “% Inhibition (BIAcore)” value with dimeric hIL-4R-hFc [6] was found to be 96%.

B2: VAB 13A1-6 (antibody, V domains shown)
VH: EVQLVESGGGLVQPGRSLRLSCAASGFTFDNYAMHWVRQAPGKGLEWVSGIRWNSGSIGYADSVKGRFTISRDNAKNSLYLQMNSLRAEDTALYYCAKEGGYSGYRPGPFFDYWGQGTLVTVSS
VL: B1 VL with V9A, L13V, P22S, S30N, S31Y, S32N, Q38H, A40P, S43A, N77S
Regarding B2, the binding result with hIL-4R was “binds”.

B3: VAK10G12-5 (antibody, V domains shown)
VH: QVQLVESGGGVVQPGGSLRLSCAASGFTFSSYGMHWVRQAPGRGLEWVAVLSYDGSKEFYADSVKVRFTVSRDNSKNTLYLQMSSLRVEDTAIYFCAKEGRTGNWFDPWGQGTLVAVSS
VL: DIQMTQSPSSLSASVGDRVTITCRASQAINNFLAWFQQKPGKTPKSLIFATSSLQSGVPSRFSGSESGTDFTLTISSLQPEDFATYYCQQYNSHPWTFGQGTKVEIK
notes: as for B1
Regarding B3, in the test with dimeric hIL-4R-hFc [1], half-maximal inhibition (IC50) required 0.059 nM. For the same molecule, in test [2], the “STAT6 Bioassay IC50 (HEK293 STAT6 luciferase, 10 pM hIL-4)” value came out at 0.36 nM and the “TF1 Bioassay IC50 (proliferation, 50 pM hIL-4)” value was found to be 0.58 nM. Also, in the test with dimeric hIL-4R-hFc [3], the affinity, expressed as Kd, was 0.007 nM and the T1/2 dimeric was 46 h. In test [4], this molecule displayed a Kd of 0.09 nM and a T1/2 monomeric of 6 h. Further, the binding result with mouse IL-4R is reported as “no binding”. In addition, in test [5], the “STAT6 Bioassay IC50 (HEK293 STAT6 luciferase, 40 pM hIL-13)” value is 0.26 nM and the “TF1 Bioassay IC50 (proliferation, 150 pM hIL-13)” value was 1.9 nM. Further, in the test with dimeric hIL-4R-hFc [6], the “% Inhibition (BIAcore)” value was found to be 94%.
